Test results published in the RNAGym collection of RNA variant scans (doi:10.1093/molbev/msab373).

B1: Azoarcus group I ribozyme (parent)
chain: GUGCCUUGCGCCGGGAAACCACGCAAGGGAUGGUGUCAAAUUCGGCGAAACCUAAGCGCCCGCCCGGGCGUAUGGCAACGCCGAGCCAAGCUUCGGCGCCUGCGCCGAUGAAGGUGUAGAGACUAGACGGCACCCACCUAAGGCAAACGCUAUGGUGAAGGCAUAGUCCAGGGAGUGGCGAAAGUCACACAAACCGG

Variants of: B1
Test: reverse-splicing fitness (ratio to wild type); higher = more active; in vitro selection; Mg2+ level not given
Procedure, shortened: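 An in vitro group I ribozyme library with randomized positions was T7-transcribed and gel-purified. In triplicate, 10 pmol RNA in EPPS pH 7.5 was reacted with 50 pmoles of a 30-nt RNA substrate for 1 h at 37 °C across several added MgCl2 levels (1–48 mM), then stopped with EDTA. Products were reverse transcribed from a substrate-complementary primer, PCR-amplified and sequenced (HiSeq 4000). Fitness is a variant's read proportion after selection over that before, normalised to wild type.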

In order of falling reverse-splicing fitness:
1. C82A A111U A120C A145G C150A C169G U176C  0.0343
2. C82A A111U A120C A145U  0.0284
3. C82A A111U A120C C169A U176C  0.0277
4. C82A A111U A120C A145G  0.0269
5. C82A A111U A120C  0.0268
6. C82A A111U A120C A145C  0.0267
7. C82A A111U A120C A145G C150U  0.0255
8. C82A A111U A120C A145U C169A U176C  0.0235
9. C82A A111U A120C A145U C169A U176A  0.0227
10. C82A A111U A120C C169A U176A  0.0222
11. C82A A111U A120C A145C C150A C169A U176A  0.0206
12. C82A A111U A120C C150U C169G U176C  0.0205
13. C82A A111U A120C A145G C150A C169G U176A  0.0204
14. C82A A111U A120C A145C U176C  0.0202
15. C82A A111U A120C A145C C150U U176C  0.0198
16. C82A A111U A120C A145G C150A C169U U176A  0.019
17. C82A A111U A120G A145C C150A C169U U176A  0.0189
18. C82A A111G C150U C169A U176A  0.0185
19. C82A A111U A120C A145G C150U C169A U176A  0.0182
20. C82A A111U A120C A145G C150U C169A U176C  0.018
21. C82A A111U A120C A145G C150A C169U U176C  0.0176
22. C82A A111U A120C A145U C150A C169U U176A  0.0174
23. C82A A111G C150U C169A U176C  0.0164
24. C82A A111U A120C A145G C150G C169A U176A  0.0164
25. C82A A111U A120C A145C C150A C169A U176C  0.0164
26. C82A A111U A120C A145G C150G C169A U176C  0.016
27. C82A A111U A120C C150U C169G U176A  0.0159
28. C82A A111U A120C A145C C150A C169U U176A  0.0157
29. C82A A111U A120C A145U C169U U176C  0.0156
30. C82A A111U A120G  0.0152
31. C82A A111U A120C A145U C169U U176A  0.0151
32. C82A A111U A120C A145G C169U  0.0142
33. C82A A111U A120C A145C U176A  0.0139
34. C82A A111U A120C A145U C150A C169U U176C  0.0133
35. C82A A111U A120C A145G C150A  0.013
36. C82A A111U A120C A145U C169U  0.0129
37. C82A A111U A120G A145C  0.0126
38. C82A A111U A120C C150G C169A U176A  0.0125
39. C82A A111U A120C A145C C150A C169U U176C  0.0124
40. C82A A111U A120C C150G C169A U176C  0.0122
41. C82A A111U A120C C150U C169U  0.0121
42. C82A A111U A120C A145C C150U U176A  0.0118
43. C82A A111U A120C A145U C150U C169U  0.0116
44. C82A A111U A120C A145U C169G  0.0114
45. C82A A111U A120C A145G C169A  0.0113
46. C82A A111U A120C A145C C169U  0.0112
47. C82A A111U A120C A145U C150U C169A  0.0111
48. C82A A111U A120C C150U C169A  0.0109
49. C82A A111U A120C A145G C150G C169U  0.0104
50. C82A A111U A120C A145C C169A  0.0103
51. C82A A111U A120C A145G C169G  0.0103
52. C82A A111U A120C A145C C150G C169U U176C  0.0102
53. C82A A111U A120C C150G C169U  0.0101
54. C82A A111U A120C C150G C169A  0.0101
55. C82A A111U A120C A145G C150G  0.0101
56. C82A A111U A120C A145C C169G  0.01
57. C82A A111U A120C A145U C169A  0.00981
58. C82A A111U A120C A145U C150U C169G  0.00959
59. C82A A111U A120C A145G C150U C169A U176G  0.00943
60. C82A A111U A120C A145G C150G C169A  0.00936
61. C82A A111U A120C A145G C150G C169A U176G  0.00887
62. C82A A111U A120C A145G C150A C169U U176G  0.00879
63. C82A A111U A120C A145G C150A C169G U176G  0.00858
64. C82A A111U A120C A145U C150A C169U U176G  0.00856
65. C82A A111U A120C C150G C169G  0.00832
66. C82A A111U A120C C150U C169G  0.00831
67. C82A A111U A120C A145U C169A U176G  0.00804
68. C82A A111U A120C A145C C150A C169A U176G  0.00772
69. C82A A111U A120C A145G C150G C169G  0.00768
70. C82A A111U A120G A145C C150G U176C  0.00759
71. C82A A111U A120C C150U C169G U176G  0.00747
72. C82A A111U A120C C169A U176G  0.00734
73. C82A A111U A120C C150G C169A U176G  0.00717
74. C82A A111G C150U C169A U176G  0.00716
75. C82A A111U A120C A145C C150G C169U U176A  0.00683
76. C82A A111U A120C A145C C150U U176G  0.00643
77. C82A A111U A120C A145C C150A C169U U176G  0.00621
78. C82A A111U A120G A145C C150A C169U U176G  0.0059
79. C82A A111U A120C A145C U176G  0.00578
80. C82A A111U A120C A145U C169U U176G  0.00555
81. C82A A111U A120C A145C C150G C169U U176G  0.00543
82. C82A A111U A120G A145C C150G U176A  0.00504
83. C82A A111G C150G U176G  0.004
84. C82A A111U A120G A145C C150G U176G  0.00318
